This note sets out measurements from paper PMC9458432 (Nucleic Acids Research, 2022).

Substitutions are numbered along the chain they refer to.

Data set [1] addresses T1, ΔFOSB Cys172Ser/JUND heterodimers (Mus musculus, UniProt P13346+P15066, C172S).
T1 sequence (P13346 2-237 isoform P13346-2 C172S): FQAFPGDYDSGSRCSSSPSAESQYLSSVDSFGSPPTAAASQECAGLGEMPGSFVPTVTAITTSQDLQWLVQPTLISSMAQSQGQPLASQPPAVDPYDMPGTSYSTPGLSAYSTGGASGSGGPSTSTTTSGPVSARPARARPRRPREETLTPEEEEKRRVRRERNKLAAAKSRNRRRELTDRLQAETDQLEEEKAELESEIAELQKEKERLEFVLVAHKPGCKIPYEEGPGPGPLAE
T1 sequence (P15066 2-341): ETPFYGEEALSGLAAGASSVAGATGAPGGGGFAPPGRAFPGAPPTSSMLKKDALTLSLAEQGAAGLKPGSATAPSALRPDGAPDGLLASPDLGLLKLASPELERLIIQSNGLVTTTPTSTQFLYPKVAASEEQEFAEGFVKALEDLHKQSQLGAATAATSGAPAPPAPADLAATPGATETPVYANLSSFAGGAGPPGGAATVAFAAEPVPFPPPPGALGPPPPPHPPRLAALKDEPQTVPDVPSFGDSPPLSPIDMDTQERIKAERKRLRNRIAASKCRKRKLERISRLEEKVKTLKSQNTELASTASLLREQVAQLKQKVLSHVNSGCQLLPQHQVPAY
The experiment in a line: FP dose-response against ΔFOSB Cys172Ser/JUND heterodimers. The settings on record: 50 nM TMR-cdk5, 280 nM protein, compound 0–200 μM. It counts as binding.

In a further data set the target is T2, ΔFOSB Cys172Ser homomers (Mus musculus, UniProt P13346, C172S).
T2 sequence (P13346 2-237 isoform P13346-2 C172S): T1 sequence (P13346 2-237 isoform P13346-2 C172S)
The experiment in a line: FP dose-response against ΔFOSB Cys172Ser homomers. The data set is classed as binding. To be noted: 50 nM TMR-cdk5, 280 nM protein, compound 0–200 μM.

In another data set the target is T3, ΔFOSB Cys172Trp (mouse, UniProt P13346-2 2-237, C172W).
T3 sequence: T1 sequence (P13346 2-237 isoform P13346-2 C172S) with S171W
Put plainly: fluorescence polarization. On the technique in general: In fluorescence polarisation assays a small probe gives low polarisation when free and higher when bound to something large.

The next data set has as its target T4, ΔFOSB (N(His)6-ΔFOSB) (mouse, UniProt P13346-2 2-237).
T4 sequence: T1 sequence (P13346 2-237 isoform P13346-2 C172S) with S171C
The experiment in a line: fluorescence polarization.

Data set [2] concerns the target T5, ΔFOSB (N(His)6-ΔFOSB);JUND (N(His)6-JUND) (mouse;mouse, UniProt P13346-2;P15066 2-237;2-341, |).
T5 sequence 1: T1 sequence (P13346 2-237 isoform P13346-2 C172S) with S171C
T5 sequence 2: T1 sequence (P15066 2-341)
Put plainly: fluorescence polarization.

For data set [3], the target named is T5, ΔFOSB (N(His)6-ΔFOSB);JUND …. The experiment in a line: EMSA. A general note: A gel shift assay detects complexes by their altered migration in electrophoresis.

`O=C(O)CCc1cc(C(=O)c2ccc(OC3CCCC3)cc2O)ccc1OCc1ccc2c(=O)[nH]oc2c1` [Compound T5224]: the “Disruption of DNA binding to ΔFOSB Cys172Ser/JUND heterodimers” value in data set [1] was “similarly well as to the wild-type species”. Moreover, the “Disruption of DNA binding to ΔFOSB Cys172Ser homomers” value at ΔFOSB Cys172Ser homomers is recorded as “similarly well as to the wild-type species”.

B1: TMR-cdk5 (dsDNA)
DNA 1: CGTCGGTGACTCAAAACAC
DNA 2: GTGTTTTGAGTCACCGACG
Take B1: the binding result (with ΔFOSB Cys172Trp; in the data set with ΔFOSB (N(His)6-ΔFOSB); in data set [2]) was “binds” throughout.

B2: BIO-cdk5 (dsDNA)
DNA 1: CGTCGGTGACTCAAAACAC
DNA 2: GTGTTTTGAGTCACCGACG
B2: the binding result in data set [3] is listed as “binds”.
